Results: patent US20220056104A1 (Janssen / Centocor, published 2022)

T1: Recombinant DR3-Fc (R&D Systems, cat. #943-D3) (UniProt Q93038 25-199, limits assumed)
T1 construct: dimeric MW~92 kDa; also called DR3 receptor; Fc-DR3; not shown: Fc part of the bought fusion
T1 sequence (looked up): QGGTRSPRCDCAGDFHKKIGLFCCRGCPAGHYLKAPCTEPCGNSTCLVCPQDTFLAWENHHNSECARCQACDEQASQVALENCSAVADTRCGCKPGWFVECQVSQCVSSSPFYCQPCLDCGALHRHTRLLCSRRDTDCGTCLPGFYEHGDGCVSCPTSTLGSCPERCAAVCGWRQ

T2: DcR3 (UniProt O95407 30-300, limits assumed)
T2 construct: the construct is not described; also called decoy receptor DcR3; TNFRSF6B
T2 sequence (looked up): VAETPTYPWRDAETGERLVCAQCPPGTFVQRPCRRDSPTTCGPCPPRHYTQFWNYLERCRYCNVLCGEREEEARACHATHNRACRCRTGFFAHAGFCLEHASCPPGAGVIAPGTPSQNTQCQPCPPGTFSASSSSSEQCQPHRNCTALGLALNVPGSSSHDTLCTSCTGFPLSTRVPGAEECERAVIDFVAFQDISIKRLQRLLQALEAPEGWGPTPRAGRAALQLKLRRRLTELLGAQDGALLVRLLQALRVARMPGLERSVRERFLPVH


How the values were obtained:
[1] = molecular target: T1, Recombinant DR3-Fc (R&D Systems, cat. …); test: ELISA, DR3-Fc immobilized
Procedure: All ELISA-based measurements were collected in triplicate, and error values report the standard error between measurements. Recombinant DR3-Fc (R&D Systems, cat. #943-D3), dimeric MW˜92 kDa, was non-specifically immobilized onto plates (Nunc maxisorp, cat. #436110) in 100 μL DR3-Fc, diluted to 10 μg/mL onto a 96-well White Maxisorp plate (Nunc, cat #436110) (O/N, 4° C.). Plates were block for 1 hour at room temperature with 250 μl/well of casein buffer and blocking buffer was removed. 50 μL of TL1A variants were diluted in StartingBlock PBS (Thermo Fisher Scientific), at 25 μg/mL, diluting 3× over each well, according to the plate map description for 20160623) per well on a 96-well White Maxisorp plate (Nunc, cat #: 436110) (overnight at 4° C.).
Plates were washed three times with TBST. 100 μl/well polyclonal rabbit anti-human TL1A-biotin antibody (diluted 1:1000 in Starting Block PBS) was added and plates were incubated for 1 hour at room temperature with shaking at 150 rpm. TL1A-biotin antibody was removed and 100 μl/well streptavidin-HRP conjugate (diluted 1:10,000 in Starting Block PBS) was added to plates. Plates were incubated for 1 hour at room temperature with shaking at 150 rpm. Plates were washed three times with TBST. 100 μl/well POD Chemiluminescence substrate (Roche, cat #: 11582950001) was added immediately prior to reading plate luminescence using a Molecular Devices M5 plate reader with a delay setting of 100 ms.
Variants of TL1A were generated and tested for binding to DR3 and DcR3 by ELISA as described.

DcR3 = molecular target: T2, DcR3; test: ELISA, DcR3

Row | Binder | EC50 [1] [nM] | Rel EC50 [1] | EC50 (DcR3) [nM] | Rel EC50 (DcR3)
1 | TL1W33 (His-TEV-hTL1A 72-251 R103A) (ligand, also called TL1W33 (R103A)) HHHHHHENLYFQGLKGQEFAPSHQQVYAPLRADGDKPRAHLTVVAQTPTQHFKNQFPALHWEHELGLAFTKNRMNYTNKFLLIPESGDYFIYSQVTFRGMTSECSEIRQAGRPNKPDSITVVITKVTDSYPEPTQLLMGTKSVCEVGSNWFQPIYLGAMFSLQEGDKLMVNVSDISLVDYTKEDKTFFGAFLL | 25 | 1 ratio (head: nM) | 3.3 | 0.7 ratio (head: nM)
2 | TL1W41 (His-TEV-TL1A E120A) (ligand, also called TL1W41 (E120A)) HHHHHHENLYFQGLKGQEFAPSHQQVYAPLRADGDKPRAHLTVVRQTPTQHFKNQFPALHWAHELGLAFTKNRMNYTNKFLLIPESGDYFIYSQVTFRGMTSECSEIRQAGRPNKPDSITVVITKVTDSYPEPTQLLMGTKSVCEVGSNWFQPIYLGAMFSLQEGDKLMVNVSDISLVDYTKEDKTFFGAFLL | 100 | 3.8 ratio (head: nM) | 32.6 | 7.1 ratio (head: nM)
3 | TL1W79 (His-TEV-TL1A R103E) (ligand, also called TL1W79 (R103E)) HHHHHHENLYFQGLKGQEFAPSHQQVYAPLRADGDKPRAHLTVVEQTPTQHFKNQFPALHWEHELGLAFTKNRMNYTNKFLLIPESGDYFIYSQVTFRGMTSECSEIRQAGRPNKPDSITVVITKVTDSYPEPTQLLMGTKSVCEVGSNWFQPIYLGAMFSLQEGDKLMVNVSDISLVDYTKEDKTFFGAFLL | 204 | 7.8 ratio (head: nM) | 7.1 | 1.5 ratio (head: nM)
4 | TL1W47 (His-TEV-TL1A E241A) (ligand, also called TL1W47 (E241A)) HHHHHHENLYFQGLKGQEFAPSHQQVYAPLRADGDKPRAHLTVVRQTPTQHFKNQFPALHWEHELGLAFTKNRMNYTNKFLLIPESGDYFIYSQVTFRGMTSECSEIRQAGRPNKPDSITVVITKVTDSYPEPTQLLMGTKSVCEVGSNWFQPIYLGAMFSLQEGDKLMVNVSDISLVDYTKADKTFFGAFLL | 260 | 9.9 ratio (head: nM) | 1310 | 285 ratio (head: nM)
5 | TL1W28 (His-TEV-hTL1A 72-251 E190G) (ligand, also called TL1W28 (E190G)) HHHHHHENLYFQGLKGQEFAPSHQQVYAPLRADGDKPRAHLTVVRQTPTQHFKNQFPALHWEHELGLAFTKNRMNYTNKFLLIPESGDYFIYSQVTFRGMTSECSEIRQAGRPNKPDSITVVITKVTDSYPGPTQLLMGTKSVCEVGSNWFQPIYLGAMFSLQEGDKLMVNVSDISLVDYTKEDKTFFGAFLL | 22.6 | 0.9 ratio (head: nM) | 5.7 | 1.2 ratio (head: nM)
6 | TL1W42 (His-TEV-TL1A F114A) (ligand, also called TL1W42 (F114A)) HHHHHHENLYFQGLKGQEFAPSHQQVYAPLRADGDKPRAHLTVVRQTPTQHFKNQAPALHWEHELGLAFTKNRMNYTNKFLLIPESGDYFIYSQVTFRGMTSECSEIRQAGRPNKPDSITVVITKVTDSYPEPTQLLMGTKSVCEVGSNWFQPIYLGAMFSLQEGDKLMVNVSDISLVDYTKEDKTFFGAFLL | 77.7 | 3 ratio (head: nM) | 11.4 | 2.5 ratio (head: nM)
7 | TL1W32 (His-TEV-hTL1A 72-251 Y188A) (ligand, also called TL1W32 (Y188A)) HHHHHHENLYFQGLKGQEFAPSHQQVYAPLRADGDKPRAHLTVVRQTPTQHFKNQFPALHWEHELGLAFTKNRMNYTNKFLLIPESGDYFIYSQVTFRGMTSECSEIRQAGRPNKPDSITVVITKVTDSAPEPTQLLMGTKSVCEVGSNWFQPIYLGAMFSLQEGDKLMVNVSDISLVDYTKEDKTFFGAFLL | 565 | 21.6 ratio (head: nM) | 7.6 | 1.7 ratio (head: nM)
8 | TL1W44 (His-TEV-TL1A P189K) (ligand, also called TL1W44 (P189K)) HHHHHHENLYFQGLKGQEFAPSHQQVYAPLRADGDKPRAHLTVVRQTPTQHFKNQFPALHWEHELGLAFTKNRMNYTNKFLLIPESGDYFIYSQVTFRGMTSECSEIRQAGRPNKPDSITVVITKVTDSYKEPTQLLMGTKSVCEVGSNWFQPIYLGAMFSLQEGDKLMVNVSDISLVDYTKEDKTFFGAFLL | 168 | 6.4 ratio (head: nM) | 59.1 | 12.8 ratio (head: nM)

The remaining binders from weak to strong by EC50 [1], led by results:

Row | EC50 [1] [nM] | Rel EC50 [1] | EC50 (DcR3) [nM] | Rel EC50 (DcR3) | Binder
9 | 710 | 27.1 ratio (head: nM) | 7.6 | 1.7 ratio (head: nM) | TL1W29 (His-TEV-hTL1A 72-251 P189A) (ligand, also called TL1W29 (P189A)) HHHHHHENLYFQGLKGQEFAPSHQQVYAPLRADGDKPRAHLTVVRQTPTQHFKNQFPALHWEHELGLAFTKNRMNYTNKFLLIPESGDYFIYSQVTFRGMTSECSEIRQAGRPNKPDSITVVITKVTDSYAEPTQLLMGTKSVCEVGSNWFQPIYLGAMFSLQEGDKLMVNVSDISLVDYTKEDKTFFGAFLL
10 | 423 | 16.1 ratio (head: nM) | 24.3 | 5.3 ratio (head: nM) | TL1W37 (His-TEV-TL1A L123E) (ligand, also called TL1W37 (L123E)) HHHHHHENLYFQGLKGQEFAPSHQQVYAPLRADGDKPRAHLTVVRQTPTQHFKNQFPALHWEHEEGLAFTKNRMNYTNKFLLIPESGDYFIYSQVTFRGMTSECSEIRQAGRPNKPDSITVVITKVTDSYPEPTQLLMGTKSVCEVGSNWFQPIYLGAMFSLQEGDKLMVNVSDISLVDYTKEDKTFFGAFLL
11 | 207 | 7.9 ratio (head: nM) | 72.2 | 15.7 ratio (head: nM) | TL1W43 (His-TEV-TL1A Y188S) (ligand, also called TL1W43 (Y188S)) HHHHHHENLYFQGLKGQEFAPSHQQVYAPLRADGDKPRAHLTVVRQTPTQHFKNQFPALHWEHELGLAFTKNRMNYTNKFLLIPESGDYFIYSQVTFRGMTSECSEIRQAGRPNKPDSITVVITKVTDSSPEPTQLLMGTKSVCEVGSNWFQPIYLGAMFSLQEGDKLMVNVSDISLVDYTKEDKTFFGAFLL
12 | 184 | 7 ratio (head: nM) | 38.2 | 8.3 ratio (head: nM) | TL1W39 (His-TEV-TL1A L123G) (ligand, also called TL1W39 (L123G)) HHHHHHENLYFQGLKGQEFAPSHQQVYAPLRADGDKPRAHLTVVRQTPTQHFKNQFPALHWEHEGGLAFTKNRMNYTNKFLLIPESGDYFIYSQVTFRGMTSECSEIRQAGRPNKPDSITVVITKVTDSYPEPTQLLMGTKSVCEVGSNWFQPIYLGAMFSLQEGDKLMVNVSDISLVDYTKEDKTFFGAFLL
13 | 77.2 | 2.9 ratio (head: nM) | 8.1 | 1.8 ratio (head: nM) | TL1W78 (His-TEV-TL1A R103H) (ligand, also called TL1W78 (R103H)) HHHHHHENLYFQGLKGQEFAPSHQQVYAPLRADGDKPRAHLTVVHQTPTQHFKNQFPALHWEHELGLAFTKNRMNYTNKFLLIPESGDYFIYSQVTFRGMTSECSEIRQAGRPNKPDSITVVITKVTDSYPEPTQLLMGTKSVCEVGSNWFQPIYLGAMFSLQEGDKLMVNVSDISLVDYTKEDKTFFGAFLL
14 | 30.7 | 1.2 ratio (head: nM) | 16.4 | 3.6 ratio (head: nM) | TL1W40 (His-TEV-TL1A L123S) (ligand, also called TL1W40 (L123S)) HHHHHHENLYFQGLKGQEFAPSHQQVYAPLRADGDKPRAHLTVVRQTPTQHFKNQFPALHWEHESGLAFTKNRMNYTNKFLLIPESGDYFIYSQVTFRGMTSECSEIRQAGRPNKPDSITVVITKVTDSYPEPTQLLMGTKSVCEVGSNWFQPIYLGAMFSLQEGDKLMVNVSDISLVDYTKEDKTFFGAFLL
15 | 16.4 | 0.6 ratio (head: nM) | 4.7 | 1 ratio (head: nM) | TL1W30 (His-TEV-hTL1A 72-251 N112E) (ligand, also called TL1W30 (N112E)) HHHHHHENLYFQGLKGQEFAPSHQQVYAPLRADGDKPRAHLTVVRQTPTQHFKEQFPALHWEHELGLAFTKNRMNYTNKFLLIPESGDYFIYSQVTFRGMTSECSEIRQAGRPNKPDSITVVITKVTDSYPEPTQLLMGTKSVCEVGSNWFQPIYLGAMFSLQEGDKLMVNVSDISLVDYTKEDKTFFGAFLL
16 | 13.4 | 0.5 ratio (head: nM) | 3.7 | 0.8 ratio (head: nM) | TL1W25 (His-TEV-hTL1A 72-251 N207A) (ligand, also called TL1W25 (N207A)) HHHHHHENLYFQGLKGQEFAPSHQQVYAPLRADGDKPRAHLTVVRQTPTQHFKNQFPALHWEHELGLAFTKNRMNYTNKFLLIPESGDYFIYSQVTFRGMTSECSEIRQAGRPNKPDSITVVITKVTDSYPEPTQLLMGTKSVCEVGSAWFQPIYLGAMFSLQEGDKLMVNVSDISLVDYTKEDKTFFGAFLL
17 | 9.5 | 0.4 ratio (head: nM) | 2.5 | 0.5 ratio (head: nM) | TL1W31 (GD: Single chain MMB in CBIS; His-TEV-hTL1A 72-251 R103Q) (ligand, also called TL1W31 (R103Q)) HHHHHHENLYFQGLKGQEFAPSHQQVYAPLRADGDKPRAHLTVVQQTPTQHFKNQFPALHWEHELGLAFTKNRMNYTNKFLLIPESGDYFIYSQVTFRGMTSECSEIRQAGRPNKPDSITVVITKVTDSYPEPTQLLMGTKSVCEVGSNWFQPIYLGAMFSLQEGDKLMVNVSDISLVDYTKEDKTFFGAFLL
